# Reference: patent publication US20130090286A1 (published 2013)
# Square brackets hold non-standard residues; d marks the D form. Side chains are listed from the residue outwards. Ends that are not written are not given here. * marks the point of attachment. Palmitoyl = CCCCCCCCCCCCCCCC(=O)*; Aib = CC(C)(N)C(=O)O; βAla = NCCC(=O)O
# Target: GLP-1 receptor (UniProt P43220 24-463, limits assumed)
# Assay: cell-based or functional assay
row,Binder,cAMP EC50 [pM]
1,"H[Aib]QGTFTSDK([βAla-βAla-Palmitoyl])SKYLD[Aib]RRAQDFVQWLMNT-NH2 [Peptide 84 (Table 22, SEQ ID NO: 566)]",4
2,"H[Aib]QGTFTSDK([Leu-Leu-Palmitoyl])SKYLD[Aib]RRAQDFVQWLMNT-NH2 [Peptide 86 (Table 22, SEQ ID NO: 568)]",6
